Values of other authors, collected in patent US12258594B2, “Cas proteins with reduced immunogenicity and methods of screening thereof” (THE BROAD INSTITUTE, INC., priority 2018, dated 2025).
Changes are numbered by the printed parent chain. In names and notes the source's numbering stands.

B1: Lys998: LbuCas13a with Lys998 substituted with alanine (protein, UniProt C7NBY4 1-1159, looked up, variant K998A)
CRISPR-associated …: MKVTKVGGISHKKYTSEGRLVKSESEENRTDERLSALLNMRLDMYIKNPSSTETKENQKRIGKLKKFFSNKMVYLKDNTLSLKNGKKENIDREYSETDILESDVRDKKNFAVLKKIYLNENVNSEELEVFRNDIKKKLNKINSLKYSFEKNKANYQKINENNIEKVEGKSKRNIIYDYYRESAKRDAYVSNVKEAFDKLYKEEDIAKLVLEIENLTKLEKYKIREFYHEIIGRKNDKENFAKIIYEEIQNVNNMKELIEKVPDMSELKKSQVFYKYYLDKEELNDKNIKYAFCHFVEIEMSQLLKNYVYKRLSNISNDKIKRIFEYQNLKKLIENKLLNKLDTYVRNCGKYNYYLQDGEIATSDFIARNRQNEAFLRNIIGVSSVAYFSLRNILETENENDITGRMRGKTVKNNKGEEKYVSGEVDKIYNENKKNEVKENLKMFYSYDFNMDNKNEIEDFFANIDEAISSIRHGIVHFNLELEGKDIFAFKNIAPSEISKKMFQNEINEKKLKLKIFRQLNSANVFRYLEKYKILNYLKRTRFEFVNKNIPFVPSFTKLYSRIDDLKNSLGIYWKTPKTNDDNKTKEIIDAQIYLLKNIYYGEFLNYFMSNNGNFFEISKEIIELNKNDKRNLKTGFYKLQKFEDIQEKIPKEYLANIQSLYMINAGNQDEEEKDTYIDFIQKIFLKGFMTYLANNGRLSLIYIGSDEETNTSLAEKKQEFDKFLKKYEQNNNIKIPYEINEFLREIKLGNILKYTERLNMFYLILKLLNHKELTNLKGSLEKYQSANKEEAFSDQLELINLLNLDNNRVTEDFELEADEIGKFLDFNGNKVKDNKELKKFDTNKIYFDGENIIKHRAFYNIKKYGMLNLLEKIADKAGYKISIEELKKYSNKKNEIEKNHKMQENLHRKYARPRKDEKFTDEDYESYKQAIENIEEYTHLKNKVEFNELNLLQGLLLRILHRLVGYTSIWERDLRFRLKGEFPENQYIEEIFNFENAKNVKYKGGQIVEKYIKFYKELHQNDEVKINKYSSANIKVLKQEKKDLYIRNYIAHFNYIPHAEISLLEVLENLRKLLSYDRKLKNAVMKSVVDILKEYGFVATFKIGADKKIGIQTLESEKIVHLKNLKKKKLMTDRNSEELCKLVKIMFEYKMEEKKSEN
B2: Asn997: LbuCas13a with Asn997 substituted with alanine (protein, UniProt C7NBY4 1-1159, looked up, variant N997A)
CRISPR-associated …: B1 CRISPR-associated … with N997A, A998K
B3: His473: LbuCas13a with His473 substituted with alanine (protein, UniProt C7NBY4 1-1159, looked up, variant H473A)
CRISPR-associated …: B1 CRISPR-associated … with H473A, A998K
B4: Phe995: LbuCas13a with Phe995 substituted with alanine (protein, UniProt C7NBY4 1-1159, looked up, variant F995A)
CRISPR-associated …: B1 CRISPR-associated … with F995A, A998K
B5: Lys558: LbuCas13a with alanine substituted for Lys558 (protein, UniProt C7NBY4 1-1159, looked up, variant K558A)
CRISPR-associated …: B1 CRISPR-associated … with K558A, A998K
B6: Lys718Ala: Lys718Ala mutant of LbuCas13a (protein, UniProt C7NBY4 1-1159, looked up, variant K718A)
CRISPR-associated …: B1 CRISPR-associated … with K718A, A998K
B7: Arg1135Ala: Arg1135Ala mutant of LbuCas13a (protein, UniProt C7NBY4 1-1159, looked up, variant R1135A)
CRISPR-associated …: B1 CRISPR-associated … with A998K, R1135A
B8: Lys942Ala: Lys942Ala mutant of LbuCas13a (protein, UniProt C7NBY4 1-1159, looked up, variant K942A)
CRISPR-associated …: B1 CRISPR-associated … with K942A, A998K
B9: Gln519Ala: Gln519Ala mutant of LbuCas13a (protein, UniProt C7NBY4 1-1159, looked up, variant Q519A)
CRISPR-associated …: B1 CRISPR-associated … with Q519A, A998K
B10: Tyr601Ala: Tyr601Ala mutant of LbuCas13a (protein, UniProt C7NBY4 1-1159, looked up, variant Y601A)
CRISPR-associated …: B1 CRISPR-associated … with Y601A, A998K
B11: Arg809Ala: Arg809Ala mutant of LbuCas13a (protein, UniProt C7NBY4 1-1159, looked up, variant R809A)
CRISPR-associated …: B1 CRISPR-associated … with R809A, A998K
B12: Tyr938Ala: Tyr938Ala mutant of LbuCas13a (protein, UniProt C7NBY4 1-1159, looked up, variant Y938A)
CRISPR-associated …: B1 CRISPR-associated … with Y938A, A998K
B13: Lys845Ala: Lys845Ala mutant of LbuCas13a (protein, UniProt C7NBY4 1-1159, looked up, variant K845A)
CRISPR-associated …: B1 CRISPR-associated … with K845A, A998K
B14: SaCas9 T787A: T787A mutant of SaCas9 (protein, UniProt J7RUA5 1-1053, looked up, variant T787A)
CRISPR-associated …: MKRNYILGLDIGITSVGYGIIDYETRDVIDAGVRLFKEANVENNEGRRSKRGARRLKRRRRHRIQRVKKLLFDYNLLTDHSELSGINPYEARVKGLSQKLSEEEFSAALLHLAKRRGVHNVNEVEEDTGNELSTKEQISRNSKALEEKYVAELQLERLKKDGEVRGSINRFKTSDYVKEAKQLLKVQKAYHQLDQSFIDTYIDLLETRRTYYEGPGEGSPFGWKDIKEWYEMLMGHCTYFPEELRSVKYAYNADLYNALNDLNNLVITRDENEKLEYYEKFQIIENVFKQKKKPTLKQIAKEILVNEEDIKGYRVTSTGKPEFTNLKVYHDIKDITARKEIIENAELLDQIAKILTIYQSSEDIQEELTNLNSELTQEEIEQISNLKGYTGTHNLSLKAINLILDELWHTNDNQIAIFNRLKLVPKKVDLSQQKEIPTTLVDDFILSPVVKRSFIQSIKVINAIIKKYGLPNDIIIELAREKNSKDAQKMINEMQKRNRQTNERIEEIIRTTGKENAKYLIEKIKLHDMQEGKCLYSLEAIPLEDLLNNPFNYEVDHIIPRSVSFDNSFNNKVLVKQEENSKKGNRTPFQYLSSSDSKISYETFKKHILNLAKGKGRISKTKKEYLLEERDINRFSVQKDFINRNLVDTRYATRGLMNLLRSYFRVNNLDVKVKSINGGFTSFLRRKWKFKKERNKGYKHHAEDALIIANADFIFKEWKKLDKAKKVMENQMFEEKQAESMPEIETEQEYKEIFITPHQIKHIKDFKDYKYSHRVDKKPNRELINDALYSTRKDDKGNTLIVNNLNGLYDKDNDKLKKLINKSPEKLLMYHHDPQTYQKLKLIMEQYGDEKNPLYKYYEETGNYLTKYSKKDNGPVIKKIKYYGNKLNAHLDITDDYPNSRNKVVKLSLKPYRFDVYLDNGVYKFVTVKNLDVIKKENYYEVNSKCYEEAKKLKKISNQAEFIASFYNNDLIKINGELYRVIGVNNDLLNRIEVNMIDITYREYLENMNDKRPPRIIKTIASKTQSIKKYSTDILGNLYEVKSKKHPQIIKKG
B15: D10A: D10A mutant of SaCas9 (protein, UniProt J7RUA5 1-1053, looked up, variant D10A)
CRISPR-associated …: B14 CRISPR-associated … with D10A, A787T
B16: H557A: H557A mutant of SaCas9 (protein, UniProt J7RUA5 1-1053, looked up, variant H557A)
CRISPR-associated …: B14 CRISPR-associated … with H557A, A787T
B17: D704A: D704A mutant of SaCas9 (protein, UniProt J7RUA5 1-1053, looked up, variant D704A)
CRISPR-associated …: B14 CRISPR-associated … with D704A, A787T
B18: N580A: N580A mutant of SaCas9 (protein, UniProt J7RUA5 1-1053, looked up, variant N580A)
CRISPR-associated …: B14 CRISPR-associated … with N580A, A787T
B19: E477A: E477A mutant of SaCas9 (protein, UniProt J7RUA5 1-1053, looked up, variant E477A)
CRISPR-associated …: B14 CRISPR-associated … with E477A, A787T

System: target RNA
Settings: LbuCas13a HEPN mutants

Molecule | cleavage of target and non-target ssRNA substrate
B1 | significantly reduced the cleavage of both target and non-target ssRNA substrate
B2 | significantly reduced the cleavage of both target and non-target ssRNA substrate
B3 | significantly reduced the cleavage of both target and non-target ssRNA substrate
B4 | significantly reduced the cleavage of both target and non-target ssRNA substrate

Same assay, conditions: LbuCas13a alanine mutants

Molecule | crRNA-guided target RNA cleavage activity
B5 | dramatically reduced crRNA-guided RNA cleavage
B6 | reduced target RNA cleavage activity
B7 | reduced cleavage activities
B8 | reduced target RNA cleavage activity
B9 | reduced cleavage activities
B10 | reduced target RNA cleavage activity
B11 | reduced target RNA cleavage activity
B12 | reduced target RNA cleavage activity
B13 | reduced target RNA cleavage activity

System: target DNA
Settings: SaCas9 mutants

Molecule | DNA cleavage activity
B14 | reduced DNA cleavage activity
B15 | almost no DNA cleavage activity
B16 | almost completely lacked DNA cleavage activity
B17 | almost no DNA cleavage activity
B18 | almost completely lacked DNA cleavage activity
B19 | almost no DNA cleavage activity
